From patent publication US20230060388A1

How the values were obtained:
[1] = target: human TIGIT expressed on cells (stably transfected Jurkat cells) (human) (UniProt Q495A1); test: cell-based or functional assay
[2] = target: recombinant cynomolgus TIGIT (cynomolgus monkey); test: ELISA on recombinant cyno-TIGIT
[3] = target: recombinant human TIGIT extracellular domain (ECD) (human) (UniProt Q495A1); test: ELISA on recombinant human TIGIT ECD
[4] = target: human TIGIT expressed on cells (stably transfected Jurkat cells) (human) (UniProt Q495A1); test: whole cell binding, flow cytometry, n=3 (FIG. 10A)
[5] = target: human TIGIT expressed on cells (stably transfected Jurkat cells) (human) (UniProt Q495A1); test: flow cytometry on h-TIGIT transfected Jurkat cells (whole cell binding), Alexa Fluor 488; representative of three experiments
[6] = target: recombinant mouse TIGIT (mouse) (UniProt P86176); test: ELISA on recombinant mouse-TIGIT
Chain of recombinant mouse TIGIT (mouse) (P86176 29-148 limits assumed): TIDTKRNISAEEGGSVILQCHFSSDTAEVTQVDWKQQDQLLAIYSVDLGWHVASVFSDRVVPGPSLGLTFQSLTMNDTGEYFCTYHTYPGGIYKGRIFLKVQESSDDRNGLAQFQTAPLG

Chain of human TIGIT expressed on cells (stably transfected Jurkat cells) (human) (Q495A1 22-244 limits assumed): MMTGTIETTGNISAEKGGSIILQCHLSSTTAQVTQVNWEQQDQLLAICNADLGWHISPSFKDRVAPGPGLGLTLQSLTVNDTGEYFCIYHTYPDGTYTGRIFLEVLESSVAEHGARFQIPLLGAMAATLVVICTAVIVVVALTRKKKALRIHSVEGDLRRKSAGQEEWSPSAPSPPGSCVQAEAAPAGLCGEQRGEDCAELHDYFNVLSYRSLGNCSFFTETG
Chain of recombinant human TIGIT extracellular domain (ECD) (human) (Q495A1 22-138 limits assumed): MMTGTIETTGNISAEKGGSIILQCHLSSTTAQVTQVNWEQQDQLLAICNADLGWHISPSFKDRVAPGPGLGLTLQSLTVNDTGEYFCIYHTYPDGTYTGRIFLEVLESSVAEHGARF

Row | EC50, NFAT luciferase reporter assay (n=3) [1] | EC50 (read off the curve) [2] | EC50 (read off the curve) [3] | EC50 [4] | EC50 (read off the curve) [5] | EC50 (read off the curve) [6] | Substance
1 | 0.72 nM | 0.1 µg/mL | 0.1 µg/mL | 0.61 nM | 0.5 nM |  | Reference Ab 2 (same amino acid sequences as Tiragolumab) (antibody)
2 |  |  |  |  |  | 0.08 µg/mL | anti-mouse TIGIT reference antibody (Biolegend #142101)
